Results as given in article PMC9482650, “Quantitative fragmentomics allow affinity mapping of interactomes” (Nature Communications, 2022).

How the values were obtained:
Assay in all cases: holdup assay
Parameters in all cases: key: below the threshold = too weak to quantify, mostly under pKd 3.1 to 4
Details in all cases: plain residues with an end cap or a label only (N-terminal biotin on a linker: ado-ado)
MAST1, Q9Y2H9 = biological target: MAST1, Q9Y2H9
NHERF4_1, Q86UT5-2 = biological target: NHERF4_1, Q86UT5-2
NHERF4_1, Q86UT5-2, sequence (Q86UT5 other isoform, or with tags, fused parts or gaps): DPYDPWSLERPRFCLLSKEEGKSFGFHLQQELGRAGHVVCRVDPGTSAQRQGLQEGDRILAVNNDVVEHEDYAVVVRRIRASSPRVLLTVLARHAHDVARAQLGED

NHERF2_2, Q15599 = biological target: NHERF2_2, Q15599
NHERF2_2, Q15599, sequence (Q15599 142-238): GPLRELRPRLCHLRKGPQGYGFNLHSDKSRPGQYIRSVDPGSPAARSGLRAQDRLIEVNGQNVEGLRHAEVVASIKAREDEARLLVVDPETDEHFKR

LNX2_3, Q8N448 = biological target: T1, LNX2_3, Q8N448
T1 sequence (Q8N448 463-564, limits assumed, looked up): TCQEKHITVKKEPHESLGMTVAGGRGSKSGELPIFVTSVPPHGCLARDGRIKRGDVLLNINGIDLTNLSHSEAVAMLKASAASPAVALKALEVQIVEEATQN

TJP1_2, Q07157 = biological target: TJP1_2, Q07157
TJP1_2, Q07157, sequence (Q07157 181-274): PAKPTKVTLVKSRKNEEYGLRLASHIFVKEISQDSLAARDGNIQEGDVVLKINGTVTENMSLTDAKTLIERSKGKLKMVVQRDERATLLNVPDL

Inadl_4, Q8NI35 = biological target: Inadl_4, Q8NI35
Inadl_4, Q8NI35, sequence (Q8NI35 547-651): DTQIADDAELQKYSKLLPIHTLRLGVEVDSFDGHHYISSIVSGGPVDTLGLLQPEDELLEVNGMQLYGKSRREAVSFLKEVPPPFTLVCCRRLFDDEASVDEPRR

PARD3B_1, Q8TEW8 = biological target: T2, PARD3B_1, Q8TEW8
T2 sequence (Q8TEW8 196-299, limits assumed, looked up): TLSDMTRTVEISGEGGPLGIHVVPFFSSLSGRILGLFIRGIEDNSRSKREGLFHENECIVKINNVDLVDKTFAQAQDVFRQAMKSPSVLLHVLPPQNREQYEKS

SNTG2, Q9NY99 = biological target: T3, SNTG2, Q9NY99
T3 sequence (Q9NY99 68-166, limits assumed, looked up): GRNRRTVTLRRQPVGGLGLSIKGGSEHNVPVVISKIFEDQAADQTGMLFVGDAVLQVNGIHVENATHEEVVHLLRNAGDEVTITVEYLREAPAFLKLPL

SCRIB_2, Q14160 = biological target: SCRIB_2, Q14160
SCRIB_2, Q14160, sequence (Q14160 857-960): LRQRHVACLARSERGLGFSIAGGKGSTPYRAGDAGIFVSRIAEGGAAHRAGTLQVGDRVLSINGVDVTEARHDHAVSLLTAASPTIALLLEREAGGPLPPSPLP

PCLO, Q9Y6V0 = biological target: T4, PCLO, Q9Y6V0
T4 sequence (Q9Y6V0 4491-4600, limits assumed, looked up): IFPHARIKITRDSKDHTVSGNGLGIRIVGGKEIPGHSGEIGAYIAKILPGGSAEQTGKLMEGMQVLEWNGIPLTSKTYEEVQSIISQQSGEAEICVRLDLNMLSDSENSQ

Inadl_9, Q8NI35 = biological target: Inadl_9, Q8NI35
Inadl_9, Q8NI35, sequence (Q8NI35 1530-1615): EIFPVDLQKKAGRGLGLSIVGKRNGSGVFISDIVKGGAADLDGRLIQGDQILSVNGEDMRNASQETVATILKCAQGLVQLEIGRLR

IL16_1, Q14005 = biological target: IL16_1, Q14005
IL16_1, Q14005, sequence (Q14005 210-306): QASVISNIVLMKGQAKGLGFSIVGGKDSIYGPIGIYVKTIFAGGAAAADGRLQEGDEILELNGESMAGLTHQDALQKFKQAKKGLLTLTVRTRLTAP

DLG2_2, Q15700 = biological target: DLG2_2, Q15700
DLG2_2, Q15700, sequence (Q15700 189-283): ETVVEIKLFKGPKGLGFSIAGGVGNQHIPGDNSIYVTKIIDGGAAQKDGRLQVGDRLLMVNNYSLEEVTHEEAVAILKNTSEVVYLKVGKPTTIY

NOS1, P29475 = biological target: NOS1, P29475
NOS1, P29475, sequence (P29475 9-101): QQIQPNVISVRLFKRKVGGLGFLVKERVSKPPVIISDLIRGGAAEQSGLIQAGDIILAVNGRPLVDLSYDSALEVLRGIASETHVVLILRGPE

SYNJ2BP, P57105 = biological target: T5, SYNJ2BP, P57105
T5 sequence (P57105 8-110, limits assumed, looked up): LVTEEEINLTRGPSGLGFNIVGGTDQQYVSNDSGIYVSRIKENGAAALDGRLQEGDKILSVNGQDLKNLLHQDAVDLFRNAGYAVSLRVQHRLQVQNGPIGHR

PARD3_3, Q8TEW0 = biological target: PARD3_3, Q8TEW0
PARD3_3, Q8TEW0, sequence (Q8TEW0 582-685): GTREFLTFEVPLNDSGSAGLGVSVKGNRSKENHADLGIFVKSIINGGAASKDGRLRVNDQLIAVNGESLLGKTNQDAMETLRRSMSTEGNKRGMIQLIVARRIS

SIPA1L2, Q9P2F8 = biological target: T6, SIPA1L2, Q9P2F8
T6 sequence (Q9P2F8 945-1036, limits assumed, looked up): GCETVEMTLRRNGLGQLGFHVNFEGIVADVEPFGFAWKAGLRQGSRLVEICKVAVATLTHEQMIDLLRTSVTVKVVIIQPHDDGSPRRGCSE

SNTA1, Q13424 = biological target: T7, SNTA1, Q13424
T7 sequence (Q13424 82-180, limits assumed, looked up): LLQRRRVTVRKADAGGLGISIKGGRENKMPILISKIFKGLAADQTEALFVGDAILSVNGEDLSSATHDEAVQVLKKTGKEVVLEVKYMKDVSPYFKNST

MPP7, Q5T2T1 = biological target: T8, MPP7, Q5T2T1
T8 sequence (Q5T2T1 134-230, limits assumed, looked up): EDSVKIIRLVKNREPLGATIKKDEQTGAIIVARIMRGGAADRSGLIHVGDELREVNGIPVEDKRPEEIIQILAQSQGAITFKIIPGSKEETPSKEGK

Inadl_3, Q8NI35 = biological target: Inadl_3, Q8NI35
Inadl_3, Q8NI35, sequence (Q8NI35 359-469): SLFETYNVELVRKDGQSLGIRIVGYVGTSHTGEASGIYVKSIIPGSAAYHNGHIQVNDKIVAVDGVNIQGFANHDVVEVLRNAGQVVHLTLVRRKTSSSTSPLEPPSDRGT

MAGI2_5, Q86UL8 = biological target: MAGI2_5, Q86UL8
MAGI2_5, Q86UL8, sequence (Q86UL8 915-1017): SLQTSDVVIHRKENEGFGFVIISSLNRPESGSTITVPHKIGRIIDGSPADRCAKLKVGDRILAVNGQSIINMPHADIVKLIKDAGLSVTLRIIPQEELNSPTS

HTRA3, P83110 = biological target: T9, HTRA3, P83110
T9 sequence (P83110 354-453, limits assumed, looked up): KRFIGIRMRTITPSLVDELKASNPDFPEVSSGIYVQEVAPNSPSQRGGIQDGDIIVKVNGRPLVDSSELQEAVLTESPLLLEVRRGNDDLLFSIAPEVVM

HTRA4, P83105 = biological target: T10, HTRA4, P83105
T10 sequence (P83105 378-476, limits assumed, looked up): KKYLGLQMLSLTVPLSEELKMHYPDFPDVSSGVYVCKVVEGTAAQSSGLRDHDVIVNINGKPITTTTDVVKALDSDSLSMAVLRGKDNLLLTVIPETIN

ARHGEF12, Q9NZN5-2 = biological target: ARHGEF12, Q9NZN5-2
ARHGEF12, Q9NZN5-2, sequence (Q9NZN5 other isoform, or with tags, fused parts or gaps): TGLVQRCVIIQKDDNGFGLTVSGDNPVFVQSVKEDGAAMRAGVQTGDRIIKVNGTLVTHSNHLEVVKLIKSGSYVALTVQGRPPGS

SNTG1, Q9NSN8 = biological target: T11, SNTG1, Q9NSN8
T11 sequence (Q9NSN8 52-150, limits assumed, looked up): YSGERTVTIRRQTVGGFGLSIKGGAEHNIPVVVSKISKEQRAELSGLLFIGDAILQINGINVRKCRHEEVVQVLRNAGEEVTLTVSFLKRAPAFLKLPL

ARHGEF11, O15085 = biological target: T12, ARHGEF11, O15085
T12 sequence (O15085 42-136, limits assumed, looked up): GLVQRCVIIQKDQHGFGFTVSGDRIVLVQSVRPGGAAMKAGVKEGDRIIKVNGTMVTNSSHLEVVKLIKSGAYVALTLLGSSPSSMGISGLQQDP

MAST1, Q9Y2H9, sequence (Q9Y2H9 962-1065): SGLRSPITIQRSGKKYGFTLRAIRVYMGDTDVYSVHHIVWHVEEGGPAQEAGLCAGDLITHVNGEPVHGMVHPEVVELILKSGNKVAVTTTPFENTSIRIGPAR

B1: ABCC6, O95255 (peptide)
chain: YRLAQESGLV
pKd (MAST1, Q9Y2H9): 3.59 | pKd (NHERF4_1, Q86UT5-2): 3.51 | pKd (NHERF2_2, Q15599): below the threshold | pKd (LNX2_3, Q8N448): below the threshold | pKd (TJP1_2, Q07157): below the threshold | pKd (Inadl_4, Q8NI35): below the threshold | pKd (PARD3B_1, Q8TEW8): 4.13 | pKd (SNTG2, Q9NY99): 3.61 | pKd (SCRIB_2, Q14160): below the threshold | pKd (PCLO, Q9Y6V0): below the threshold | pKd (Inadl_9, Q8NI35): below the threshold | pKd (IL16_1, Q14005): below the threshold | pKd (DLG2_2, Q15700): below the threshold | pKd (NOS1, P29475): below the threshold | pKd (SYNJ2BP, P57105): below the threshold | pKd (PARD3_3, Q8TEW0): below the threshold | pKd (SIPA1L2, Q9P2F8): below the threshold | pKd (SNTA1, Q13424): below the threshold | pKd (MPP7, Q5T2T1): below the threshold | pKd (Inadl_3, Q8NI35): below the threshold | pKd (MAGI2_5, Q86UL8): 3.61 | pKd (HTRA3, P83110): below the threshold | pKd (HTRA4, P83105): 3.79 | pKd (ARHGEF12, Q9NZN5-2): below the threshold | pKd (SNTG1, Q9NSN8): below the threshold | pKd (ARHGEF11, O15085): below the threshold

B2: TMEM225B, P0DP42 (peptide)
chain: ETQVTAETVI
pKd (MAST1, Q9Y2H9): 4.31 | pKd (NHERF4_1, Q86UT5-2): below the threshold | pKd (NHERF2_2, Q15599): below the threshold | pKd (LNX2_3, Q8N448): below the threshold | pKd (TJP1_2, Q07157): below the threshold | pKd (Inadl_4, Q8NI35): below the threshold | pKd (PARD3B_1, Q8TEW8): 4.18 | pKd (SNTG2, Q9NY99): 4.15 | pKd (SCRIB_2, Q14160): below the threshold | pKd (PCLO, Q9Y6V0): below the threshold | pKd (Inadl_9, Q8NI35): below the threshold | pKd (IL16_1, Q14005): below the threshold | pKd (DLG2_2, Q15700): 4.07 | pKd (NOS1, P29475): 3.53 | pKd (SYNJ2BP, P57105): 3.92 | pKd (PARD3_3, Q8TEW0): 4.35 | pKd (SIPA1L2, Q9P2F8): below the threshold | pKd (SNTA1, Q13424): 4.68 | pKd (MPP7, Q5T2T1): below the threshold | pKd (Inadl_3, Q8NI35): 4.26 | pKd (MAGI2_5, Q86UL8): below the threshold | pKd (HTRA3, P83110): below the threshold | pKd (HTRA4, P83105): below the threshold | pKd (ARHGEF12, Q9NZN5-2): 3.84 | pKd (SNTG1, Q9NSN8): 3.9 | pKd (ARHGEF11, O15085): below the threshold

B3: CRB2, Q5IJ48 (peptide)
chain: LKVPPEERLI
pKd (MAST1, Q9Y2H9): 3.58 | pKd (NHERF4_1, Q86UT5-2): below the threshold | pKd (NHERF2_2, Q15599): below the threshold | pKd (LNX2_3, Q8N448): below the threshold | pKd (TJP1_2, Q07157): below the threshold | pKd (Inadl_4, Q8NI35): below the threshold | pKd (PARD3B_1, Q8TEW8): 3.88 | pKd (SNTG2, Q9NY99): below the threshold | pKd (SCRIB_2, Q14160): below the threshold | pKd (PCLO, Q9Y6V0): below the threshold | pKd (Inadl_9, Q8NI35): below the threshold | pKd (IL16_1, Q14005): below the threshold | pKd (DLG2_2, Q15700): below the threshold | pKd (NOS1, P29475): below the threshold | pKd (SYNJ2BP, P57105): below the threshold | pKd (PARD3_3, Q8TEW0): 3.85 | pKd (SIPA1L2, Q9P2F8): below the threshold | pKd (SNTA1, Q13424): below the threshold | pKd (MPP7, Q5T2T1): below the threshold | pKd (Inadl_3, Q8NI35): 3.6 | pKd (MAGI2_5, Q86UL8): below the threshold | pKd (HTRA3, P83110): below the threshold | pKd (HTRA4, P83105): below the threshold | pKd (ARHGEF12, Q9NZN5-2): below the threshold | pKd (SNTG1, Q9NSN8): below the threshold | pKd (ARHGEF11, O15085): below the threshold

B4: RAB9A, P51151 (peptide)
chain: RKPKPSSSCC
pKd (MAST1, Q9Y2H9): below the threshold | pKd (NHERF4_1, Q86UT5-2): 3.81 | pKd (NHERF2_2, Q15599): below the threshold | pKd (LNX2_3, Q8N448): below the threshold | pKd (TJP1_2, Q07157): below the threshold | pKd (Inadl_4, Q8NI35): below the threshold | pKd (PARD3B_1, Q8TEW8): below the threshold | pKd (SNTG2, Q9NY99): below the threshold | pKd (SCRIB_2, Q14160): below the threshold | pKd (PCLO, Q9Y6V0): below the threshold | pKd (Inadl_9, Q8NI35): below the threshold | pKd (IL16_1, Q14005): below the threshold | pKd (DLG2_2, Q15700): below the threshold | pKd (NOS1, P29475): below the threshold | pKd (SYNJ2BP, P57105): below the threshold | pKd (PARD3_3, Q8TEW0): below the threshold | pKd (SIPA1L2, Q9P2F8): below the threshold | pKd (SNTA1, Q13424): below the threshold | pKd (MPP7, Q5T2T1): below the threshold | pKd (Inadl_3, Q8NI35): below the threshold | pKd (MAGI2_5, Q86UL8): below the threshold | pKd (HTRA3, P83110): 4.6 | pKd (HTRA4, P83105): below the threshold | pKd (ARHGEF12, Q9NZN5-2): 4.27 | pKd (SNTG1, Q9NSN8): below the threshold | pKd (ARHGEF11, O15085): below the threshold
